Data from article PMC3012696, “Crystal Structure of UBA2^ufd-Ubc9: Insights into E1-E2 Interactions in Sumo Pathways” (PLoS ONE, 2010).

Biological target: T1, Ubc9 (Sumo E2 conjugating enzyme), S. cerevisiae (S. cerevisiae, UniProt P50623 1-157)
T1 construct: Ubc9, S. cerevisiae; also called yeast Ubc9; source: cation exchange for crystallography; not shown: GST, N-terminal, cleaved
T1 sequence: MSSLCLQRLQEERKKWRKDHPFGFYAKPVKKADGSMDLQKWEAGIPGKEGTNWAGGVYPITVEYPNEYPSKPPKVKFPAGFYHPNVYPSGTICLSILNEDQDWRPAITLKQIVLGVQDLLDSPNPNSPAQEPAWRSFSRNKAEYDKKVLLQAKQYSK
Assay: crystal structure; 1.1:1 volume:volume mixture of Uba2^ufd at 22 mg/ml and Ubc9 at 27 mg/ml; crystals at 4°C; 20% (w/v) PEG3350, 0.1 M Bis-Tris pH 5.5, 0.2 M Li2SO4; 2.3 Å; two complexes per asymmetric unit
Conditions: both partners purified

binding result: binds
B1: Uba2 ubiquitin-fold domain (Uba2^ufd), residues 439-563, S. cerevisiae (domain or fragment, UniProt P52488 439-563, looked up)
chain: SKVCRGVIKLSSDCLNKMKLSDFVVLIREKYSYPQDISLLDASNQRLLFDYDFEDLNDRTLSEINLGNGSIILFSDEEGDTMIRKAIELFLDVDDELPCNTCSLPDVEVPLIKANNSPSKNEEEE
notes: Uba2 (Sumo E1 subunit), S. cerevisiae, C-terminal ubiquitin-fold domain, residues 439-563; Expressed from pGEX-4T1; also called yeast Uba2^ufd; not shown: GST, N-terminal, cleaved
